Measurements from paper doi:10.1101/2021.03.22.436490.

Assays:
[1] = molecular target: Vibrio cholerae Chromosome 2 ParA (ParA2vc) (Vibrio cholerae); experiment: crystal structure
[2] = molecular target: Vibrio cholerae Chromosome 2 ParA (ParA2vc) (Vibrio cholerae); experiment: crystal structure; remark: listed apart in the source
[3] = molecular target: Vibrio cholerae Chromosome 2 ParA (ParA2vc) (Vibrio cholerae); experiment: negative-stain EM

Measured: stoichiometry N

Vibrio cholerae Chromosome 2 ParA (ParA2vc) (natural protein)
2: [1] | [2] | [3]
